The target of the data set is GST-HuD (UniProt P26378). Briefly: filter binding.

In paper PMC2800223 one finds Kd data, which are given here for two sequences.

Sequence of GST-HuD (P26378 whole entry): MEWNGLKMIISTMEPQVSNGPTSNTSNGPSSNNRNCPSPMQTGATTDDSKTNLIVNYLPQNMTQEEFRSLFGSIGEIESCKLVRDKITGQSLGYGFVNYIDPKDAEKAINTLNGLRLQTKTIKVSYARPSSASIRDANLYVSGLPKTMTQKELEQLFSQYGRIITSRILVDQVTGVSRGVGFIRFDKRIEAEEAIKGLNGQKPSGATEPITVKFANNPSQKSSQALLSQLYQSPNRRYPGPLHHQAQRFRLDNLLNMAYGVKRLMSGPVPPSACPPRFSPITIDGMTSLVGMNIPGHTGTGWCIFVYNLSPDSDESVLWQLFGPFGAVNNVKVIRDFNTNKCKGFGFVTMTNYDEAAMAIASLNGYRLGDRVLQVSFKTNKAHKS

For “CCCUCCCUCUCUC [motif 1 oligoribonucleotide]”, the Kd is 27.3 nM.

The sequence “UUUUGUUUUGUUU [motif 2 oligoribonucleotide]” came in with a dissociation constant (Kd) of 6.9 nM.

The term Kd denotes the equilibrium constant for the complex coming apart. A low value points to tighter binding.
